Where no end group is shown, it is not given here.
Key:
[1] = target: T1, Substantially sericin-depleted silk fibroin from Bombyx mori (dissolved in 9.3 M LiBr, dialysed, then gelled … (Bombyx mori, UniProt P05790 22-5263; P21828 17-262, limits assumed); assay: HPLC of 23RGD extracted from lyophilised silk precipitate; group called RLO in this sentence (0.49 mg/mL 23RGD per paragraph 318, which is RVLO in Table 10)
T1 construct: also called silk molecule; depolymerized silk fibroin
Experimental: (§1) The amount of 23RGD bound to silk precipitates was quantified by analyzing lyophilized samples. The 23RGD was removed by incubating the samples for 4 hours in a dissolving buffer, then centrifuging on an Eppendorf 5415C (Eppendorf North America Inc., Westbury, N.Y.) at 16,000 g (RCF) for 30 minutes and the supernatant collected. This supernatant was then centrifuged in identical fashion and the final supernatant collected for HPLC analysis using a PerkinElmer Series 200 (PerkinElmer, Waltham, Mass.). The 23RGD peak areas from each curve were compared against a standard curve. 1-Way ANOVA was used to test for significant differences caused by changing silk concentration, 23RGD concentration, and accelerant volume. A Student's t-test was used to test the significance of differences resulting from altered ethanol concentrations.

[2] = target: T1, Substantially sericin-depleted silk …; assay: HPLC of 23RGD extracted from lyophilised silk precipitate; formulation labelled 0.6S 3R 10:1 (2.45 mg/mL 23RGD in 90% ethanol)
Experimental: as §1

[3] = target: T1, Substantially sericin-depleted silk …; assay: HPLC of 23RGD extracted from silk precipitate; ECLO formulation (80% ethanol accelerant), against the calculated ratio
Experimental: as §1

[4] = target: T1, Substantially sericin-depleted silk …; assay: HPLC of 23RGD extracted from lyophilised silk precipitate; SCVLO formulation (very low silk concentration, calculated ratio 10.0)
Experimental: as §1

[5] = target: T1, Substantially sericin-depleted silk …; assay: HPLC of 23RGD extracted from lyophilised silk precipitate; AVHI formulation (high accelerant volume, calculated ratio 10.0)
Experimental: as §1

[6] = target: T1, Substantially sericin-depleted silk …; assay: HPLC of 23RGD extracted from lyophilised silk precipitate; RHI formulation (high 23RGD, calculated ratio 10.0)
Experimental: as §1

[7] = target: T1, Substantially sericin-depleted silk …; assay: HPLC of 23RGD extracted from silk precipitate, against the calculated ratio
Experimental: as §1

[8] = target: T1, Substantially sericin-depleted silk …; assay: HPLC of 23RGD extracted with dissolving buffer from the rinsed 23RGD-enhanced silk gel, against a 23RGD standard curve
Excerpt: 23RGD-infused gels were studied to quantify the amount of 23RGD bound to the silk-hydrogel device as well as the quantity of free 23RGD which might be rinsed free of the device under relevant conditions. Briefly, samples of 23RGD-infused gel were cast and rinsed according to the methods above, with samples of rinse buffer being collected from each rinse for subsequent analysis by HPLC. Additionally, subsequent to the last rinse, the gel samples were mechanically pulverized by means of a stainless steel stirring rod and the adsorbed 23RGD removed by incubation for 4 hours in a dissolving buffer. This mixture of gel and solvent was then centrifuged on an Eppendorf 5415C at 16,000 g RCF for 30 minutes. The supernatant was collected and centrifuged another 30 minutes at 16,000 g RCF after which time the supernatant was collected in a sample vial for HPLC analysis. Samples of rinse buffer from the first and last rinse were centrifuged in the same fashion after being diluted with the same solvent the gel was extracted with in a volumetric ratio of 1 part rinse buffer to 4 parts solvent. To ensure 23RGD-hydrogel device rinse-exposed surface area was not a limiting factor, the same rinse and extraction process was performed upon devices pulverized after gelation and before rinsing.

[9] = target: T1, Substantially sericin-depleted silk …; assay: Inferred by the filing from the HPLC ratios of the precipitates
Experimental: as §1

[10] = target: T1, Substantially sericin-depleted silk …; assay: HPLC of 23RGD extracted from lyophilised silk precipitate; AVLO formulation (low accelerant volume, calculated ratio 2.5)
Experimental: as §1

[11] = target: T1, Substantially sericin-depleted silk …; assay: HPLC of 23RGD extracted from lyophilised silk precipitate; group called RMED (1.47 mg/mL 23RGD per paragraph 318, which is RLO in Table 10)
Experimental: as §1

[12] = target: T1, Substantially sericin-depleted silk …; assay: HPLC of 23RGD extracted from lyophilised silk precipitate; SCLO formulation (low silk concentration, calculated ratio 6.7)
Experimental: as §1

[13] = target: T1, Substantially sericin-depleted silk …; assay: HPLC of 23RGD extracted from lyophilised silk precipitate; BASE formulation (calculated ratio 5.0)
Experimental: as §1

GRGDIPASSKGGGGSRLLLLLLR-NH2 (also called 23RDG) [23RGD peptide (amphiphilic peptide GRGDIPASSKG4SRL6R-NH2)]
23RGD:silk molar ratio bound [1]: 1.1 mol 23RGD per mol silk
23RGD:silk molar ratio bound [2]: ~10 mol 23RGD per mol silk
fold of the expected (calculated) bound 23RGD [3]: ~1.5 fold
23RGD:silk molar ratio bound [4]: 11 mol 23RGD per mol silk
23RGD:silk molar ratio bound [5]: 10.5 mol 23RGD per mol silk
23RGD:silk molar ratio bound [6]: 10.7 mol 23RGD per mol silk
fold of the expected (calculated) bound 23RGD [7]: ~2 fold
23RGD:silk molar ratio bound [8]: 3.35 mol 23RGD per mol silk
apparent saturation, 23RGD:silk ratio [9]: ~10 mol 23RGD per mol silk
23RGD:silk molar ratio bound [10]: 5.2 mol 23RGD per mol silk
23RGD:silk molar ratio bound [11]: 6.95 mol 23RGD per mol silk
23RGD:silk molar ratio bound [12]: 9.9 mol 23RGD per mol silk
23RGD:silk molar ratio bound [13]: 8.7 mol 23RGD per mol silk

— patent US20110008436A1 (published 2011)
